Test results taken from publication PMC12416549 (2024).
Residue numbers refer to the chain shown, from its start. In names and notes the source's numbering stands. Values belong to the binder of their own block, whether it stands above or below them.

Biological target: T1, TNFR1 (Homo sapiens, UniProt P19438)
T1 chain: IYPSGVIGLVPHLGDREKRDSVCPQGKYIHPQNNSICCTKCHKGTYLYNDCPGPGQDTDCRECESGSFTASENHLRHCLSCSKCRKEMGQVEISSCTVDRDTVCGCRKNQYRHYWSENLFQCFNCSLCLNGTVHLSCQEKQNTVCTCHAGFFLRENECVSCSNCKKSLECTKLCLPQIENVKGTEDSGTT
Assay: yeast display SC50

- apparent Kd (screen): 0.49 nM
B1: V100F (designed binder)
chain: MTLQELLREEALRRAEAEAFRYALELLAEKFPEQKEYLLDLAEEIESQIRSLSGVDVEDVRKFLDKEWAWVKELLAEHPAELAEVEAARAARLAELRAEFEAKVAA

- apparent Kd (screen): 0.718 nM
B2: A91W (designed binder)
chain: B1 chain with A91W, F100V

- apparent Kd (screen): 0.49 nM
B3: V104C (designed binder)
chain: B1 chain with F100V, V104C

- apparent Kd (screen): 0.49 nM
B4: A76G (designed binder)
chain: B1 chain with A76G, F100V

- apparent Kd (screen): 1.16 nM
B5: F31W (designed binder)
chain: B1 chain with F31W, F100V

- apparent Kd (screen): 0.446 nM
B6: R89T (designed binder)
chain: B1 chain with R89T, F100V

- apparent Kd (screen): 0.653 nM
B7: V104E (designed binder)
chain: B1 chain with F100V, V104E

- apparent Kd (screen): 1.16 nM
B8: Q4S (designed binder)
chain: B1 chain with Q4S, F100V

- apparent Kd (screen): 0.593 nM
B9: A83T (designed binder)
chain: B1 chain with A83T, F100V

- apparent Kd (screen): 13.8 nM
B10: W70I (designed binder)
chain: B1 chain with W70I, F100V

- apparent Kd (screen): 1.86 nM
B11: A42D (designed binder)
chain: B1 chain with A42D, F100V

- apparent Kd (screen): 0.539 nM
B12: E81N (designed binder)
chain: B1 chain with E81N, F100V

- apparent Kd (screen): 0.593 nM
B13: A91E (designed binder)
chain: B1 chain with A91E, F100V

- apparent Kd (screen): 0.539 nM
B14: E10D (designed binder)
chain: B1 chain with E10D, F100V

- apparent Kd (screen): 1.4 nM
B15: D40L (designed binder)
chain: B1 chain with D40L, F100V

- apparent Kd (screen): 0.49 nM
B16: A80C (designed binder)
chain: B1 chain with A80C, F100V

- apparent Kd (screen): 0.539 nM
B17: D65K (designed binder)
chain: B1 chain with D65K, F100V

- apparent Kd (screen): 0.593 nM
B18: V100N (designed binder)
chain: B1 chain with F100N

- apparent Kd (screen): 0.653 nM
B19: E73L (designed binder)
chain: B1 chain with E73L, F100V

- apparent Kd (screen): 2.48 nM
B20: W68R (designed binder)
chain: B1 chain with W68R, F100V

- apparent Kd (screen): 0.539 nM
B21: R14W (designed binder)
chain: B1 chain with R14W, F100V

- apparent Kd (screen): 0.718 nM
B22: W68G (designed binder)
chain: B1 chain with W68G, F100V

- apparent Kd (screen): 1.4 nM
B23: E9A (designed binder)
chain: B1 chain with E9A, F100V

- apparent Kd (screen): 9.41 nM
B24: A28M (designed binder)
chain: B1 chain with A28M, F100V

- apparent Kd (screen): 0.49 nM
B25: L82M (designed binder)
chain: B1 chain with L82M, F100V

- apparent Kd (screen): 0.593 nM
B26: A11T (designed binder)
chain: B1 chain with A11T, F100V

- apparent Kd (screen): 0.49 nM
B27: E33S (designed binder)
chain: B1 chain with E33S, F100V

- apparent Kd (screen): 0.653 nM
B28: A94N (designed binder)
chain: B1 chain with A94N, F100V

- apparent Kd (screen): 2.48 nM
B29: L74V (designed binder)
chain: B1 chain with L74V, F100V

- apparent Kd (screen): 0.593 nM
B30: L3Y (designed binder)
chain: B1 chain with L3Y, F100V

- apparent Kd (screen): 0.446 nM
B31: A19N (designed binder)
chain: B1 chain with A19N, F100V

- apparent Kd (screen): 0.869 nM
B32: E84H (designed binder)
chain: B1 chain with E84H, F100V

- apparent Kd (screen): 0.446 nM
B33: R92L (designed binder)
chain: B1 chain with R92L, F100V

- apparent Kd (screen): 0.539 nM
B34: K72Q (designed binder)
chain: B1 chain with K72Q, F100V

- apparent Kd (screen): 0.593 nM
B35: A94F (designed binder)
chain: B1 chain with A94F, F100V

- apparent Kd (screen): 0.49 nM
B36: E77T (designed binder)
chain: B1 chain with E77T, F100V

- apparent Kd (screen): 0.539 nM
B37: E18I (designed binder)
chain: B1 chain with E18I, F100V

- apparent Kd (screen): 0.718 nM
B38: A90Y (designed binder)
chain: B1 chain with A90Y, F100V

- apparent Kd (screen): 0.653 nM
B39: R14E (designed binder)
chain: B1 chain with R14E, F100V

- apparent Kd (screen): 0.49 nM
B40: D65N (designed binder)
chain: B1 chain with D65N, F100V

- apparent Kd (screen): 24.4 nM
B41: L64S (designed binder)
chain: B1 chain with L64S, F100V

- apparent Kd (screen): 0.446 nM
B42: E77F (designed binder)
chain: B1 chain with E77F, F100V

- apparent Kd (screen): 0.956 nM
B43: F63S (designed binder)
chain: B1 chain with F63S, F100V

- apparent Kd (screen): 0.79 nM
B44: A17D (designed binder)
chain: B1 chain with A17D, F100V

- apparent Kd (screen): 2.48 nM
B45: L64C (designed binder)
chain: B1 chain with L64C, F100V

- apparent Kd (screen): 0.49 nM
B46: A87D (designed binder)
chain: B1 chain with A87D, F100V

- apparent Kd (screen): 2.48 nM
B47: S53V (designed binder)
chain: B1 chain with S53V, F100V

- apparent Kd (screen): 12.5 nM
B48: G54F (designed binder)
chain: B1 chain with G54F, F100V

- apparent Kd (screen): 0.653 nM
B49: A69G (designed binder)
chain: B1 chain with A69G, F100V

- apparent Kd (screen): 0.79 nM
B50: A80G (designed binder)
chain: B1 chain with A80G, F100V

- apparent Kd (screen): 0.79 nM
B51: V60W (designed binder)
chain: B1 chain with V60W, F100V

- apparent Kd (screen): 0.653 nM
B52: E95H (designed binder)
chain: B1 chain with E95H, F100V

- apparent Kd (screen): 2.73 nM
B53: A15P (designed binder)
chain: B1 chain with A15P, F100V

- apparent Kd (screen): 15.2 nM
B54: W70Q (designed binder)
chain: B1 chain with W70Q, F100V

- apparent Kd (screen): 0.718 nM
B55: E81A (designed binder)
chain: B1 chain with E81A, F100V

- apparent Kd (screen): 2.73 nM
B56: T2E (designed binder)
chain: B1 chain with T2E, F100V

- apparent Kd (screen): 0.718 nM
B57: A98G (designed binder)
chain: B1 chain with A98G, F100V

- apparent Kd (screen): 0.539 nM
B58: L24Y (designed binder)
chain: B1 chain with L24Y, F100V

- apparent Kd (screen): 0.405 nM
B59: E36S (designed binder)
chain: B1 chain with E36S, F100V
